Values quoted from earlier work as cited in PMC3236687.

Legend:
[1] = target: endothelin receptors (IMCD cells) (Rattus norvegicus) (UniProt P26684); experiment: radioligand
[2] = target: endothelin receptor (renal papillary membranes) (Sus scrofa) (UniProt P35463); experiment: radioligand
Sequence of UniProt P35463 (P35463 27-443): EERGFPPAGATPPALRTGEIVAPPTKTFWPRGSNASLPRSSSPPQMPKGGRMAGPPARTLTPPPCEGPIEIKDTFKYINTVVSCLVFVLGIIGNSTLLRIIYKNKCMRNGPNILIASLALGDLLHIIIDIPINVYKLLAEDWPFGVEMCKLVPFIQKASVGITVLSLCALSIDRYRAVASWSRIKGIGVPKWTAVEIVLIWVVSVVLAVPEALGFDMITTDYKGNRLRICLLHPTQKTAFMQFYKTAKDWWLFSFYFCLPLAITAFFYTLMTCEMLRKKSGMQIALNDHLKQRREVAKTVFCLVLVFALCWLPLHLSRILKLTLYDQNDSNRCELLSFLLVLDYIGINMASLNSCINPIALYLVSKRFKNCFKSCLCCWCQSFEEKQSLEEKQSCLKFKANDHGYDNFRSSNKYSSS

Sequence of UniProt P26684 (P26684 21-426, chain 1 of 2): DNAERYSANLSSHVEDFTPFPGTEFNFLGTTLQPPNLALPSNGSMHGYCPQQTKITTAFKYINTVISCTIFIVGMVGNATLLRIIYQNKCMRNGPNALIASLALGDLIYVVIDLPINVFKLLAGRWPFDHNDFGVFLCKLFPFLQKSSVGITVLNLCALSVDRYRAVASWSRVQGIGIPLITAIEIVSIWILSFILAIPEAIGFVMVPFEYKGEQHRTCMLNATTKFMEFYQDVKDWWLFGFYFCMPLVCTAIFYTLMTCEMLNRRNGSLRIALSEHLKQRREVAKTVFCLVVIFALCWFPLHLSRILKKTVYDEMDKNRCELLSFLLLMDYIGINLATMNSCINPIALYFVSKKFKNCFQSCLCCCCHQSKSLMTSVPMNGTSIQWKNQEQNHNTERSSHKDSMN
Sequence of UniProt P26684 (P21451 27-442, chain 2 of 2, further chain): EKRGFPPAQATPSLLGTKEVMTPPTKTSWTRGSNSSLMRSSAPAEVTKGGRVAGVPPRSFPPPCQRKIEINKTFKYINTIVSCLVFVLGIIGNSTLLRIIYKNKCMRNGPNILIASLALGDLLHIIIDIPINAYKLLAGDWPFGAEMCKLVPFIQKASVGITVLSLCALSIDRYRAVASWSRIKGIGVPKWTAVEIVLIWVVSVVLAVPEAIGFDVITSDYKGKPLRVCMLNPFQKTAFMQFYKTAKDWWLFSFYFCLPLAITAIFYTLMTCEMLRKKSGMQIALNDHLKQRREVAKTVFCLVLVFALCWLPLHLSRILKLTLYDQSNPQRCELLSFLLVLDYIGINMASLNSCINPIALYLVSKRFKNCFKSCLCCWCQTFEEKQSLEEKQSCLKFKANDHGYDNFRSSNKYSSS

- Kd [1]: 0.218 nM
- Kd [2]: 0.137 nM
Substance: ET-1 (from UniProt P05305)
